Here are results for seven molecules from patent publication US20180142016A1 (EUREKA THERAPEUTICS, published 2018).

Residue numbers refer to the chain shown, from its start.

This assay deals with T1, human ROR1 on the cell surface (human, UniProt Q01973 30-937).
T1 construct: Endogenous ROR1 of MDA-MB-231, A549, H1299, Jeko-1, primary CLL cells; also called cell surface ROR1; ROR1 positive cells
The assay is described as follows: flow cytometry, Zenon Alexa Fluor 647-labelled antibody on CD5+ CD19+ CLL cells of patient 13, MFI of the isotype control at the same concentration subtracted. On the procedure: Anti-ROR1 and control IgG1 antibodies were labeled using a Zenon® Alexa Fluor® 647 human IgG labeling kit (Life Technologies) according to the manufacturer's directions. Frozen peripheral blood mononuclear cells (PBMC) from CLL patients (AllCells LLC) were thawed and washed in FACS buffer (PBS, 2% heat inactivated FBS, 0.1% NaN3). CLL cells were counted and resuspended at 4×10E6 cell/mL in FACS buffer. 2×10E5 cells per test were then incubated in […] FACS buffer with phycoerythrin (PE)-labeled anti-CD5, […] isothiocyanate (FITC)-labeled anti-CD19 (BD Biosciences) and Zenon® Alexa Fluor® 647-labelled anti-ROR1 or control human IgG1 ET901 (Eureka Therapeutics) for 30 minutes on ice. Following incubation, the cells were washed twice in FACS buffer and fixed in 2% paraformaldehyde in PBS (final concentration). Cells were run on a BD LSRII flow cytometer (BD Biosciences) and analyzed using FlowJo software (Treestar).
CLL cells identified as CD5 and CD19 double positive were assessed for anti-ROR1 or control Ig staining.

T1 sequence (Q01973 30-937 limits assumed): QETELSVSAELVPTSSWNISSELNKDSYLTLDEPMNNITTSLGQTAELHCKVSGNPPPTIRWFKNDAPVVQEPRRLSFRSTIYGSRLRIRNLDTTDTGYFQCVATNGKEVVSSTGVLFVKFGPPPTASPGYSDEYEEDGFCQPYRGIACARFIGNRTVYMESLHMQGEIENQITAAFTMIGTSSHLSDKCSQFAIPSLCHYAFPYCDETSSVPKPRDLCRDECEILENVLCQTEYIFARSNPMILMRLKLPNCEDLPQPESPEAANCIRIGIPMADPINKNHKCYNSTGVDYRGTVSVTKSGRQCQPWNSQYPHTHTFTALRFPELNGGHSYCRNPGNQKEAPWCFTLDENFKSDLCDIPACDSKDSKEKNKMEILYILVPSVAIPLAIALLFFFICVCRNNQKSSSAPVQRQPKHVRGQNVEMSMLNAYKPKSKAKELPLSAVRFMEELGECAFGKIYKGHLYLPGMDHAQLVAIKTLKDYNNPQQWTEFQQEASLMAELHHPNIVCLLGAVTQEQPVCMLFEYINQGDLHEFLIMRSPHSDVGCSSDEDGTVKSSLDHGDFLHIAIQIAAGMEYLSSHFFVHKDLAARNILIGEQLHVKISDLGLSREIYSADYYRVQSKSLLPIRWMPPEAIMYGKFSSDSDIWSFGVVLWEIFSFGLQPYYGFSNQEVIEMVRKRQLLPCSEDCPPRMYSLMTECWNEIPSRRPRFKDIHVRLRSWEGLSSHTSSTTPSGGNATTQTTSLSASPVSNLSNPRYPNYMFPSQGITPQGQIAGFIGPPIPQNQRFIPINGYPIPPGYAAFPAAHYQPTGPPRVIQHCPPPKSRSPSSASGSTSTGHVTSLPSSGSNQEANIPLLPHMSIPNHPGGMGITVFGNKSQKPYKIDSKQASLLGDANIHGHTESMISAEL

B1: 601-1 (antibody, V domains shown)
VH: EVQLVESGGGLVKPGGSLRLSCAASGFTFSDYYMSWIRQAPGKGLEWVSYISDSTNTIYYADSVKGRFTVSRDNPKNSLYLQMISLRAEDTAVYYCARAVGAGEGFDHWGQGTLVTVSS
VL: not shown
modifications: Zenon Alexa Fluor 647 label, bound non-covalently to the Fc, is not carried in the letters
notes: the phage clone of the same number is m13; also called Antibody 601-1; copies: 2 + 2
For B1, the binding result is listed as “binds”.

B2: 601-43 (antibody, V domains shown)
VH: QVQLQQSGAEVKKPGASVRVSCKASGYSFGNNGITWVRQAPGQGLEWMGWISTYNGNTNYAQKLQGRVTMTTDTSTSTAYMELRSLRSDDTAVYYCARDYYSDSSGYWDDAFDIWGQGTTVTVSS
VL: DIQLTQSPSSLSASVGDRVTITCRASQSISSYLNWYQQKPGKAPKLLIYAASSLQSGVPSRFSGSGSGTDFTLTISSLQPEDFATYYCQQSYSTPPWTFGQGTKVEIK
modifications: Zenon Alexa Fluor 647 label, bound non-covalently to the Fc, is not carried in the letters
notes: the phage clone of the same number is m16; also called Antibody 601-43; copies: 2 + 2
For B2, the binding result is “binds”.

B3: 601-51 (antibody, V domains shown)
VH: not shown
VL: QSALTQPASVSGSPGQSITISCTGTSSDFGDYDYVSWYQQHPGKAPKLMIYDVSDRPSGVSNRFSGSKSGNTASLTISGLQAEDEADYFCSSFTTSSTLVFGGGTKLTVL
modifications: Zenon Alexa Fluor 647 label, bound non-covalently to the Fc, is not carried in the letters
notes: the phage clone of the same number is m19; also called Antibody 601-51; copies: 2 + 2
Consider B3, for which the binding result is recorded as “binds”.

B4: 601-56 (antibody, V domains shown)
VH: QLQLQESGPGLVKPSETLSLTCTVSGGSISSSSYYWGWIRQPPGKGLEWIGSIYYSGSTYYNPSLKSRVTISVDTSKNQFSLKLGSVTAADTAVYYCARHDGTDAFDIWGQGTTVTVSS
VL: B3 VL with A3V, F93L
modifications: Zenon Alexa Fluor 647 label, bound non-covalently to the Fc, is not carried in the letters
notes: the phage clone of the same number is m28; also called Antibody 601-56; copies: 2 + 2
For the molecule B4, the binding result is “binds”.

B5: 601-137 (antibody, V domains shown)
VH: QVQLQQSGAEVKKPGASVKVSCKASGYTFSRYYIHWVRQAPGQGLEWMGIINTDGGTTTYAQKFQGRLTMTRDTSTSTVYMELSSLRSDDTAVYYCARDYGTIDARRFDYWGQGTLVTVSS
VL: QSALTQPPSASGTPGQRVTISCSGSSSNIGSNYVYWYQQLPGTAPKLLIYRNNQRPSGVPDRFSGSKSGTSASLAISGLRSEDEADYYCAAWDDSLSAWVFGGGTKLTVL
modifications: Non-covalent Zenon Alexa Fluor 647 label in the assay, not part of the letters
notes: the phage clone of the same number is m26; also called Antibody 601-137; copies: 2 + 2
For B5, the binding result is recorded as “binds”.

B6: 601-86 (antibody, V domains shown)
VH: QVTLKESGPTLLKPTQTLTLTCTFSGFSLSTRGVGVGWIRQPPGQALEWLTLIYWDDDKRYSPSLKSRLTITKDTSKNQVVLTMTNMESVDTATYYCAQQTMTGAFDIWGQGTTVTVSS
VL: DIQMTQSPSSVSASVGDRVTITCRASQGISTLLAWYQQKPGKAPKLLISSASSLQSGVPARFSGSGSGTDFTLTISSLQPEDFATYYCQQSYRAPTFGQGTKVEIK
modifications: Zenon Alexa Fluor 647 label, bound non-covalently to the Fc, is not carried in the letters
notes: the phage clone of the same number is m27; also called Antibody 601-86; copies: 2 + 2
For B6, the binding result is reported as “binds”.

B7: 601-69 (antibody, V domains shown)
VH: QVQLVQSGAEVKKPGESLKISCKGSGYSFTSYWIGWVRQMPGKGLEWMGIIYPGDSDTRYSPSFQGQVTISADKSISTAYLQWSSLKASDTAMYYCARLSSSSYDAFDIWGQGTMVTVSS
VL: QSALTQPASVSGSPGQSITISCTGTSSDVGGYNYVSWYQQHPGKAPKLMIYDVSNRPSGVSNRFSGSKSGNTASLTISGLQAEDEADYYCSSYTSSSIPWVFGGGTKLTVL
modifications: Zenon Alexa Fluor 647 label, bound non-covalently to the Fc, is not carried in the letters
notes: the phage clone of the same number is m50; also called Antibody 601-69; copies: 2 + 2
Turning to B7, the binding result was “binds”.
